This is an account of results in paper PMC8964686.

The experiment deals with Escherichia coli RNA polymerase holoenzyme with σ^70, in the initially stalled complex (E. coli) (UniProt P00579).
Chain of UniProt P00579 (P00579 whole entry, looked up, one chain of several): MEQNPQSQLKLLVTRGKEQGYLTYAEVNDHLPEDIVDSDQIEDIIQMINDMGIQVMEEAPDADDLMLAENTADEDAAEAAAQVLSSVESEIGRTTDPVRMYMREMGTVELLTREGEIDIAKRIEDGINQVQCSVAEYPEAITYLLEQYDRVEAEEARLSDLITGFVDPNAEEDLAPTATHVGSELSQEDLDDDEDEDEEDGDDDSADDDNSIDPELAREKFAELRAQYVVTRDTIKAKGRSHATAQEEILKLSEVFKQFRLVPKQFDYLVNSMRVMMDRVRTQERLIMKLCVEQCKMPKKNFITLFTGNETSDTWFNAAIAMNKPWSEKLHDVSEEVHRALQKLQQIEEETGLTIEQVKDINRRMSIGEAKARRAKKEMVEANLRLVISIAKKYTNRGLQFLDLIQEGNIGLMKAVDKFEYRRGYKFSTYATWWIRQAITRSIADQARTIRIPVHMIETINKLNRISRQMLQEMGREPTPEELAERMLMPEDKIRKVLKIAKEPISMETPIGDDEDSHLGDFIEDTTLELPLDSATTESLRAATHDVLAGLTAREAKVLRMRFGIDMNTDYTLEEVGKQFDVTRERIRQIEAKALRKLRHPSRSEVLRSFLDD

As for “Rho (ρ) transcription termination factor, wild type (from UniProt P0AG30 1-419) (enzyme)”, the time constant of the decrease of stand-by TE as the interval between ISC washing and NTP injection is prolonged was determined as 693 s.
